Test results published in patent publication US20200207859A1 (priority 2017, published 2020).

Key:
Experiment in all cases: Cell killing assay (cell proliferation, Cell Titer-Glo)
Settings in all cases: 72 hrs
ARP-1 (MM) = assay type: cell-based, human
Description: (§1) Cytotoxicity effects of the free drug linkers and conjugates were measured with a cell proliferation assay. A total of 12500 cells in a volume of 25 μl were seeded in a 384-well flat bottom white polystyrene plate on the day of assay. Free drug-linkers and conjugates were formulated at 2× starting concentration (1000 nM for free drug linkers and 100 nM for ADCs) in RPMI medium and filtered through MultiScreen HTS 96-Well Filter Plates (Millipore). Filter sterilized samples were serial diluted (1:3) under sterile conditions and added into treatment wells. Plates were cultured at 37° C. in a CO2 incubator for 72 hrs. For cell viability measurement, 30 μl of Cell Titer-Glo® reagent (Promega Corp.) was added into each well, and plates processed as per product instructions. Relative luminescence was measured on an ENVISION® plate reader (Perkin-Elmer; Waltham, Mass.). Relative luminescence readings were converted to % viability using untreated cells as controls. Data was fitted with non-linear regression analysis, using log(inhibitor) vs. response, variable slope, 4 parameter fit equation using GraphPad Prism. Data was expressed as % relative cell viability vs. dose of free drug-linker or conjugate in nM.

SU-DHL-6 (NHL) = assay type: cell-based, human
Description: as §1

ARD (MM) = assay type: cell-based, human
Description: as §1

RPMI-6666 (HL) = assay type: cell-based
Description: as §1

BDCM (AML) = assay type: cell-based
Description: as §1

SUP-B15 (ALL) = assay type: cell-based
Description: as §1

JVM-13 (CLL) = assay type: cell-based
Description: as §1

K562 (CML) = assay type: cell-based; design: key to Cell Killing Activity Span: NK = no killing; NB = no binding
Description: as §1

OPM-2 (MM) = assay type: cell-based; design: key to Cell Killing Activity Span: NK = no killing; NB = no binding
Description: as §1

RPMI-8226 (MM) = assay type: cell-based; design: key to Cell Killing Activity Span: NK = no killing; NB = no binding
Description: as §1

Molecule | Cell Killing Activity Span (ARP-1 (MM)) | IC50 (ARP-1 (MM)) | Cell Killing Activity Span (SU-DHL-6 (NHL)) | Cell Killing Activity Span (ARD (MM)) | IC50 (ARD (MM)) | Cell Killing Activity Span (RPMI-6666 (HL)) | Cell Killing Activity Span (BDCM (AML)) | IC50 (BDCM (AML)) | Cell Killing Activity Span (SUP-B15 (ALL)) | IC50 (SUP-B15 (ALL)) | Cell Killing Activity Span (JVM-13 (CLL)) | IC50 (JVM-13 (CLL)) | Cell Killing Activity Span (K562 (CML)) | IC50 (K562 (CML)) | Cell Killing Activity Span (OPM-2 (MM)) | IC50 (OPM-2 (MM)) | Cell Killing Activity Span (RPMI-8226 (MM)) | IC50 (RPMI-8226 (MM))
Conjugate F: anti-CD74 IgG containing residue 30 conjugated to a PEG4-MMAE precursor (conjugate) VH: QVQLVESGGGVVQPGRSLRLSCAASGFNFSDYGMHWVRQAPGKGLEWVAVIWYDGSISYYADSVKGRFTISRDNSKNTLYLQMNSLRAEDTAVYYCARGGTVEHGAVYGTDVWGQGTTVTVSS VL: DIQMTQSPSSVSASVGDRVTITCRASQGIGSWLAWYQQKPGKAPKLLIYAADRLQSGVPSRFSGSGSGTDFTLTISSLQPEDFATYYCQQYHTYPLTFGGGTKVEIK | 93% | 4.2 nM | 97% | 73% | 16 nM | 82% | 94% | 1.4 nM | 65% | 3.7 nM | 59% | 5 nM | NK | > 50 nM | NK | > 50 nM | 31% | 20 nM
Conjugate C: anti-CD74 IgG containing residue 30 conjugated to a val-cit-PAB-hemiasterlin precursor (conjugate, non-natural residues) VH: QVQLVESGGGVVQPGRSLRLSCAASGFNFSDYGMHWVRQAPGKGLEWVAVIWYDGSISYYADSVKGRFTISRDNSKNTLYLQMNSLRAEDTAVYYCARGGTVEHGAVYGTDVWGQGTTVTVSS VL: DIQMTQSPSSVSASVGDRVTITCRASQGIGSWLAWYQQKPGKAPKLLIYAADRLQSGVPSRFSGSGSGTDFTLTISSLQPEDFATYYCQQYHTYPLTFGGGTKVEIK | 87% | – | 97% | 74% | – | 84% | 89% | – | 68% | – | 54% | – | NK | > 50 nM | NK | > 50 nM | 43% | –
